Results from US20220204583A1.

Molecular target: recombinant transferrin receptor ectodomain (UniProt Q62351)
Experiment: competition: 8D3 pre-incubated with 2 µM soluble rTfR ectodomain, then binding to live bEnd.3 cells at 4° C., IRDye detection

Sequence of recombinant transferrin receptor ectodomain (Q62351 89-763 limits assumed): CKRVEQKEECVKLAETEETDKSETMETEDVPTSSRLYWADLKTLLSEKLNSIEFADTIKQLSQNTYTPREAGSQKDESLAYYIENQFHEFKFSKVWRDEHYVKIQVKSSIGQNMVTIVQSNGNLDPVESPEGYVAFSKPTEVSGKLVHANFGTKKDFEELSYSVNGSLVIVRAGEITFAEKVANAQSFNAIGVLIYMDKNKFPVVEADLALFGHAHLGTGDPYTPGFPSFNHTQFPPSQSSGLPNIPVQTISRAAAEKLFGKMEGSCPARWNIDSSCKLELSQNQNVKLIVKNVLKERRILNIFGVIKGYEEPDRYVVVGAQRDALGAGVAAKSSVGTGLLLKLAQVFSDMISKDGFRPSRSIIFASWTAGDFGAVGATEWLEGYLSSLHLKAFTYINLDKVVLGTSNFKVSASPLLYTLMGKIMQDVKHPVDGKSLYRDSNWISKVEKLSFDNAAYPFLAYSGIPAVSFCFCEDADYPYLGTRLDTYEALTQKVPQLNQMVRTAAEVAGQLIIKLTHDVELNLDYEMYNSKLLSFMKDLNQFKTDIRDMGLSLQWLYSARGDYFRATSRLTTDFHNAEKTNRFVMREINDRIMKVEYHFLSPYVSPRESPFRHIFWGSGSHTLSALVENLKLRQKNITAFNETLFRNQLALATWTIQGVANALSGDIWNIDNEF

MBEC binding signal with rTfR competition, percent of the non-competition signal: 20%
B1: anti-transferrin receptor antibody (8D3) (antibody, from another filing, V domains shown)
VH: EVQLVESGGGLVQPGNSLTLSCVASGFTFSNYGMHWIRQAPKKGLEWIAMIYYDSSKMNYADTVKGRFTISRDNSKNTLYLEMNSLRSEDTAMYYCAVPTSHYVVDVWGQGVSVTVSS
VL: DIQMTQSPASLSASLEEIVTITCQASQDIGNWLAWYQQKPGKSPQLLIYGATSLADGVPSRFSGSRSGTQFSLKISRVQVEDIGIYYCLQAYNTPWTFGGGTKLELK
